Entries after “also recorded” stand apart in the source; their conditions may differ.
B1: Wnt-1: caudalizing factor (Peprotech 50 ng/ml) (protein, UniProt P04628 28-370, looked up)
Proto-oncogene Wnt-1: ANSSGRWWGIVNVASSTNLLTDSKSLQLVLEPSLQLLSRKQRRLIRQNPGILHSVSGGLQSAVRECKWQFRNRRWNCPTAPGPHLFGKIVNRGCRETAFIFAITSAGVTHSVARSCSEGSIESCTCDYRRRGPGGPDWHWGGCSDNIDFGRLFGREFVDSGEKGRDLRFLMNLHNNEAGRTTVFSEMRQECKCHGMSGSCTVRTCWMRLPTLRAVGDVLRDRFDGASRVLYGNRGSNRASRAELLRLEPEDPAHKPPSPHDLVYFEKSPNFCTYSGRLGTAGTAGRACNSSSPALDGCELLCCGRGHRTRTQRVTERCNCTFHWCCHVSCRNCTHTRVLHECL
B2: FGF8: caudalizing factor (R&D 50 ng/ml) (protein, UniProt P55075 23-233, looked up)
Fibroblast growth factor 8: QEGPGRGPALGRELASLFRAGREPQGVSQQHVREQSLVTDQLSRRLIRTYQLYSRTSGKHVQVLANKRINAMAEDGDPFAKLIVETDTFGSRVRVRGAETGLYICMNKKGKLIAKSNGKGKDCVFTEIVLENNYTALQNAKYEGWYMAFTRKGRPRKGSKTRQHQREVHFMKRLPRGHHTTEQSLRFEFLNYPPFTRSLRGSQRTWAPEPR
B3: Wnt3A: WNT protein added to neural rosette stage cells (protein, UniProt P56704 19-352, looked up)
Protein Wnt-3a: SYPIWWSLAVGPQYSSLGSQPILCASIPGLVPKQLRFCRNYVEIMPSVAEGIKIGIQECQHQFRGRRWNCTTVHDSLAIFGPVLDKATRESAFVHAIASAGVAFAVTRSCAEGTAAICGCSSRHQGSPGKGWKWGGCSEDIEFGGMVSREFADARENRPDARSAMNRHNNEAGRQAIASHMHLKCKCHGLSGSCEVKTCWWSQPDFRAIGDFLKDKYDSASEMVVEKHRESRGWVETLRPRYTYFKVPTERDLVYYEASPNFCEPNPETGSFGTRDRTCNVSSHGIDGCDLLCCGRGHNARAERRREKCRCVFHWCCYVSCQECTRVYDVHTCK

What was measured:
Assay type in all cases: cell-based, human
hESCs [1] = experiment: Floor plate induction in NSB protocol, FOXA2 immunostaining; details: added early along FP differentiation; BIO 100 nM
Protocol: (§1) For MS5 induction, established methods previously reported were used (Perrier et al., 2004). Feeder free neural induction was carried out as previously described (Chambers et al., 2009). Briefly, hESCs cultures were disaggregated using accutase for 20 minutes, washed using hESCs media and pre-plated on gelatin for 1 hour at 37° C. in the presence of ROCK inhibitor to remove MEFs. The nonadherent hESCs were washed and plated on matrigel at a density of 20,000 cells/cm2 on matrigel (BD) coated dishes in MEF conditioned hESCs media (CM) spiked with 10 ng/mL of FGF-2 and ROCK-inhibitor. The ROCK inhibitor was withdrawn, and hESCs were allowed to expand in CM for 3 days or until they were nearly confluent. The initial differentiation media conditions included knock out serum replacement (KSR) media with […] TGF-b inhibitor (SB431542, Tocris) and 500 ng/mL of Noggin (R&D). Upon day 5 of differentiation, increasing amounts of N2 media (25%, 50%, 75%) was added to the KSR media every two days while maintaining 500 ng/mL of Noggin and TGF-b inhibitor. For FP induction, Sonic C25II was added at 200 ng/ml.
Tissue was fixed using 4% paraformaldehyde and Picric acid for 15 minutes, washed with PBS, permeablized using 0.3% Triton X in PBS, and blocked using 10% Donkey Serum. Primary antibodies used for microscopy included PAX6 (Covance), TUJ1 (Covance), ZO1 (Zymed), BF1 (FOXG1, gift E.Lai), TH (Pelfreez), NKX6.1 (DSHB) and FOXA2 (SantaCruz).
Using this protocol, in combination with compositions and methods of the present inventions, the inventors aimed to optimize FP differentiation by adding Sonic C25II at different time points during neural induction and assaying for FOXA2 expression. Differentiation was initiated upon NSB exposure, and Sonic C25II was added at Day 1, Day 3, Day 5, or Day 7 (FIG. 2A).

[2] = tested on: rosette-stage neural cells; experiment: Floor plate induction in stromal-feeder (MS5) derived / rosette-stage neural cells; details: added to neural rosette stage cells
Protocol: as §1
hESC derived neural cells at the rosette stage were differentiated into both CNS and PNS progeny and patterned towards multiple cells fates along the A/P and D/V axis (Elkabetz et al., 2008). […] Specification of progenitor cells into FP tissue and cells during mouse development was thought to depend on SHH signaling within early neural lineages. The inventors tested whether rosette-stage neural cells were competent to undergo FP specification in response to SHH. High concentrations of SHH were needed to induce FP during mouse development (Roelink et al., 1994; Ericson et al., 1996). Recombinant N-terminal SHH has a limited activity range due to the lack of posttranslational modifications required for full SHH action. Recently, a modified version of recombinant SHH became available where SHH was tethered to two Isoleucines (Sonic C25II, R&D Systems), mimicking more closely the potency of mammalian SHH protein.
The majority of cells retained rosette cytoarchitecture and staining for the AN marker BF1 as described previously (FIG. 1A) (Elkabetz et al., 2008).
Based on the hypothesis that FP specification in the mouse occurs at early developmental stages, at the time of or prior to neural induction, the inventors repeated SHH induction studies at Day 9, the time of rosette specification, using classic stromal-feeder mediated neural induction protocols (Elkabetz et al., 2008). Under this paradigm the inventors noticed a drastic change in cell morphology restricted to the cells treated with SHH-C25II (FIG. 1B).

hESC = experiment: Real-Time PCR of pluripotency and germ layer markers in treated hESC
Protocol: Cells and Culture Conditions (dual SMAD and floor plate). hESCs (WA-09; passages 35-45) were cultured on mouse embryonic fibroblasts plated at 12-15,000 cells/cm2 (MEFs, Global Stem). A medium of DMEM/F12, 20% knockout serum replacement (GIBCO), 0.1 mM b-mercaptoethanol, 6 ng/mL FGF-2 was changed daily. Cells were passaged using 6 U/mL of dispase in hESCs media, washed and re-plated at a dilution of 1:5 to 1:10. Neural Induction (Dual SMAD). hESC cultures were disaggregated using accutase for 20 minutes, washed using hESC media and pre-plated on gelatin for 1 hour at 37° C. in the presence of ROCK inhibitor to remove MEFs. The nonadherent hESC were washed and plated on matrigel at a density of 10,000-25,000 cells/cm^2 on matrigel (BD) coated dishes in MEF conditioned hESC media (CM) spiked with 10 ng/mL of FGF-2 and ROCK-inhibitor. […] The ROCK inhibitor was withdrawn, and hESC were allowed to expand in CM for 3 days or until they were nearly confluent. The initial differentiation media conditions included knock out serum replacement (KSR) media with […] TGF-beta inhibitor (SB431542, Tocris) and 500 ng/mL of Noggin (R&D). Upon day 5 of differentiation, the TGF-b inhibitor was withdrawn and increasing amounts of N2 media (25%, 50%, 75%) was added to the KSR media every two days while maintaining 500 ng/mL of Noggin. For MS5 induction, established methods previously reported were used^18. Quantitative Real-Time (Dual SMAD). Total RNA was extracted using an RNeasy kit (Qiagen). For each sample, 1 ug of total RNA was treated for DNA contamination and reverse transcribed using the Quantitect RT kit (Qiagen). Amplified material was detected using Quantitect SYBR green probes and PCR kit (Qiagen) on a Mastercycler RealPlex2 (Eppendorf). Results were normalized to a HPRT control and are from 4-6 technical replicates of 2-3 independent biological samples at each data point. Neuronal Patterning and Differentiation (Dual SMAD). Dopaminergic patterning was initiated using BDNF, ascorbic acid, sonic hedgehog, and FGF8 in N2 media as previously reported^18, and maturation was performed in the presence of BDNF, ascorbic acid, GDNF, TGFb-1, and cyclic-AMP. Motor neuron patterning was performed using BDNF, ascorbic acid, sonic hedgehog, and retinoic acid in N2 media as previously reported^16. Microscopy, Antibodies, and Flow Cytometry (Dual SMAD). Tissue was fixed using 4% paraformaldehyde for 20 minutes, washed with PBS, permeablized using 0.5% Triton X in PBS, and blocked using 1% BSA in PBS. Primary antibodies used for microscopy included PAX6 (Covance), Oct4 (Biovision), AP2 (Novus Biologicals), GBX2 (Sigma), HNK1 (Sigma), HOXB4 (Developmental Studies Hybridoma Bank (DSHB)), Nestin (R&D), NKX6.1 (DSHB), OTX2 (gift), p75 (Advanced Target Systems.), PAX7 (DSHB), PLZF (Calbiochem), TUJ1 (Covance), ZO1 (Zymed), BF1 (FOXG1, gift Esseng Lai), TH (Sigma), HB9 (DSHB), ISL1 (DSHB). CD105-PE (eBioscience) was used for excluding MS5 stromal cells for flow cytometery on a FACS can (BD). Floor Plate: Neural Induction.

hESCs [3] = experiment: qRT-PCR of FP, AN and regional markers during FP induction
Protocol: as §1
Total RNA was extracted using an RNeasy kit (Qiagen). For each sample, 1 ug of total RNA was treated for DNA contamination and reverse transcribed using the Superscript III (Invitrogen). Amplified material was detected using Taqman probes and PCR mix (ABI) on a Mastercycler RealPlex2 (Eppendorf). All results were normalized to a HPRT control and are from 3 technical replicates of 3 independent biological samples at each data point.
FOXA2 is a key marker of FP development. However, FOXA2 is also highly expressed in the endoderm. To further characterize the hESC derived putative FP tissue, the inventors performed qRT-PCR analyses for candidate markers at Day 11. […] The inventors further characterized the nature of FOXA2+ putative FP cells using a panel of neural precursor, glial, neuronal and non-neural markers (FIG. 7). […] To distinguish FOXA2 expression in hESC derived FP versus endoderm tissue, the inventors differentiated hESCs to endoderm (D'Amour et al., 2005).
To gain further insight into the factors critical for human FP specification, high resolution temporal gene expression profiles of candidate markers were performed at 6 time points during the 11 day protocol.
The inventors contemplated the use of SIX6 as a putative marker of anterior FP identity. Thus SIX6 status of the hESC derived FP was used to mark respecification in response to known caudalizing agents such as FGF8, Wnt-1, and Retinoic Acid. Each of these caudalizing factors was added in combination with SHH and the resulting tissue was assessed for expression of the FP markers FOXA2 and NETRIN-1, the AN marker BF1, and putative anterior FP marker SIX6.

hESCs derived FP = experiment: SHH enhancer (SBE1/SBE2) LacZ constructs in hESC derived FP
From the text: As mentioned above, studies had identified different enhancers that directed SHH expression to different A/P region along ventral axis (Jeong et al., 2008). […] In the absence of caudalizing factors (SHH C25II alone), LacZ expression was observed herein following transfection with the SBE2 but not the SBE1 enhancer supporting the hypothesis that hESC derived FP is anterior by default (FIG. 6C). In contrast SBE2 activity was abolished upon treatment with Wnt1 or FGF8 while SBE1 activity was induced under these conditions.

[4] = caudalizing factor added in combination with SHH

Molecule	FP competency of neural rosette stage cells [2]	CDX2 expression (hESC)	SIX6 expression (hESCs [3]; [4])	SBE1 enhancer activity (LacZ) (hESCs derived FP)	SBE2 enhancer activity (LacZ) (hESCs derived FP)	also measured
O=C1Nc2cc(Br)ccc2/C1=C1/Nc2ccccc2/C1=N\O [BIO, reference compound]	not sufficient to induced FP competency	–	–	–	–	FOXA2 expression (hESCs [1]): can increase FOXA2 expression
NC(=O)c1ccc(-c2nc(-c3ccc4c(c3)OCO4)c(-c3ccccn3)[nH]2)cc1 [SB431542, 4-[4-(1,3-benzodioxol-5-yl)-5-(2-pyridinyl)-1H-imidazol-2-yl]-benzamide]	–	dramatic increase	–	–	–	Brachyury expression (mesodermal lineage) (hESC): suppression of Brachyury; Nanog expression (hESC; hESC in KSR): rapid loss of Nanog expression; also recorded: most dramatic downregulation
Noggin	–	Suppression of CDX2	–	–	–	SOX17 expression (endodermal lineage) (hESC): suppression of SOX17
B1	not sufficient to induced FP competency	–	significant reduction in SIX6 expression	induced	abolished	FP production based on FOXA2 and Netrin-1 expression (hESCs [3]; added in combination with SHH): significantly potentiated FP production; BF1 expression (hESCs [3]; [4]): dramatic reduction in BF1 expression; midbrain FP markers CORIN and NOV and DA progenitor markers LMX1B, EN1, NGN2 (hESCs [3]; qPCR): significant increase
B2	–	–	significant reduction in SIX6 expression	induced	abolished	–
B3	not sufficient to induced FP competency	–	–	–	–	–
